Source: paper PMC9234707

Tests used:
[1] = target: BMPR2 GBD-Fc (WT) (human) (UniProt Q13873); experiment: SPR; BIAcore 3000; receptor-Fc (about 500 RU BMPR2-Fc WT or variants, 150 RU ACVR2A-Fc) captured on immobilised anti-human IgG (Fc), CM5 chip; single injections of 80 nM GF, single curve fits, averages of two independent injections; 25 °C; HBS/EPS (0.01 M Hepes, 0.5 M NaCl, 3 mM EDTA, 0.005% Tween 20, pH 7.4) with 0.1% bovine serum albumin; 50 μl/min; 1:1 binding model, KD = kd/ka
ACVR2A GBD-Fc (human) [2] = target: ACVR2A GBD-Fc (human) (UniProt P27037); experiment: as above
[3] = target: BMPR2-Fc variant Q42R (human) (UniProt Q13873); experiment: SPR; BIAcore 3000; receptor-Fc captured on immobilised anti-human IgG (Fc), CM5 chip; titration, global fit of 2.5, 5.0, 10.0, 20.0 and 40.0 nM GF injections; 25 °C; HBS/EPS (0.01 M Hepes, 0.5 M NaCl, 3 mM EDTA, 0.005% Tween 20, pH 7.4) with 0.1% bovine serum albumin; 50 μl/min; 1:1 binding model, KD = kd/ka
[4] = target: BMPR2-Fc variant G47D (human) (UniProt Q13873); experiment: as above
[5] = target: BMPR2-Fc variant S107P (human) (UniProt Q13873); experiment: as above
[6] = target: BMPR2-Fc variant Q92H (human) (UniProt Q13873); experiment: as above
[7] = target: BMPR2 GBD-Fc (WT) (human) (UniProt Q13873); experiment: SPR; BIAcore 3000; receptor-Fc (about 500 RU BMPR2-Fc WT or variants, 150 RU ACVR2A-Fc) captured on immobilised anti-human IgG (Fc), CM5 chip; single injections of 80 nM GF, single curve fits, averages of two independent injections; 25 °C; HBS/EPS (0.01 M Hepes, 0.5 M NaCl, 3 mM EDTA, 0.005% Tween 20, pH 7.4) with 0.1% bovine serum albumin; 50 μl/min; 1:1 binding model, KD = kd/ka; remark: listed apart in the source
[8] = target: BMPR2-Fc variant Q42R (human) (UniProt Q13873); experiment: as above
[9] = target: BMPR2-Fc variant G47D (human) (UniProt Q13873); experiment: as above
[10] = target: BMPR2-Fc variant S107P (human) (UniProt Q13873); experiment: as above
[11] = target: BMPR2-Fc variant Q92H (human) (UniProt Q13873); experiment: as above
[12] = target: BMPR2 GBD-Fc (WT) (human) (UniProt Q13873); experiment: SPR; BIAcore 3000; receptor-Fc captured on immobilised anti-human IgG (Fc), CM5 chip; titration, global fit of 2.5, 5.0, 10.0, 20.0 and 40.0 nM GF injections; 25 °C; HBS/EPS (0.01 M Hepes, 0.5 M NaCl, 3 mM EDTA, 0.005% Tween 20, pH 7.4) with 0.1% bovine serum albumin; 50 μl/min; 1:1 binding model, KD = kd/ka
[13] = target: BMPR2 GBD-Fc (WT) (human) (UniProt Q13873); experiment: as above; remark: listed apart in the source
ACVR2A GBD-Fc (human) [14] = target: ACVR2A GBD-Fc (human) (UniProt P27037); experiment: as above

Sequence of ACVR2A GBD-Fc (human) (P27037 whole entry): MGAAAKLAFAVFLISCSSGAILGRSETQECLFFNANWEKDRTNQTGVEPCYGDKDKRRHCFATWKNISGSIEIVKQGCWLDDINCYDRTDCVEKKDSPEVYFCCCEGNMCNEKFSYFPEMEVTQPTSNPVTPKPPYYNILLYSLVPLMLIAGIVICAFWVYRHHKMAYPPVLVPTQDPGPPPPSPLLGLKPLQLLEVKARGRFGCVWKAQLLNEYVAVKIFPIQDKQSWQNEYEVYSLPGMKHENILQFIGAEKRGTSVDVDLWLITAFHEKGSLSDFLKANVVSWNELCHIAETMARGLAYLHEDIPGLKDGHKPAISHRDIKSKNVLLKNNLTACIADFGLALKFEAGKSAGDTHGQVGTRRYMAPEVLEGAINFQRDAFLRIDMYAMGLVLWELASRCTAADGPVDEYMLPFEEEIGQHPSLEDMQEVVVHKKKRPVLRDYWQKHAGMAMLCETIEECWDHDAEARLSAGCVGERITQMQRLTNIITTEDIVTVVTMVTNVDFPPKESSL
Sequence of BMPR2 GBD-Fc (WT) (human) (Q13873 whole entry): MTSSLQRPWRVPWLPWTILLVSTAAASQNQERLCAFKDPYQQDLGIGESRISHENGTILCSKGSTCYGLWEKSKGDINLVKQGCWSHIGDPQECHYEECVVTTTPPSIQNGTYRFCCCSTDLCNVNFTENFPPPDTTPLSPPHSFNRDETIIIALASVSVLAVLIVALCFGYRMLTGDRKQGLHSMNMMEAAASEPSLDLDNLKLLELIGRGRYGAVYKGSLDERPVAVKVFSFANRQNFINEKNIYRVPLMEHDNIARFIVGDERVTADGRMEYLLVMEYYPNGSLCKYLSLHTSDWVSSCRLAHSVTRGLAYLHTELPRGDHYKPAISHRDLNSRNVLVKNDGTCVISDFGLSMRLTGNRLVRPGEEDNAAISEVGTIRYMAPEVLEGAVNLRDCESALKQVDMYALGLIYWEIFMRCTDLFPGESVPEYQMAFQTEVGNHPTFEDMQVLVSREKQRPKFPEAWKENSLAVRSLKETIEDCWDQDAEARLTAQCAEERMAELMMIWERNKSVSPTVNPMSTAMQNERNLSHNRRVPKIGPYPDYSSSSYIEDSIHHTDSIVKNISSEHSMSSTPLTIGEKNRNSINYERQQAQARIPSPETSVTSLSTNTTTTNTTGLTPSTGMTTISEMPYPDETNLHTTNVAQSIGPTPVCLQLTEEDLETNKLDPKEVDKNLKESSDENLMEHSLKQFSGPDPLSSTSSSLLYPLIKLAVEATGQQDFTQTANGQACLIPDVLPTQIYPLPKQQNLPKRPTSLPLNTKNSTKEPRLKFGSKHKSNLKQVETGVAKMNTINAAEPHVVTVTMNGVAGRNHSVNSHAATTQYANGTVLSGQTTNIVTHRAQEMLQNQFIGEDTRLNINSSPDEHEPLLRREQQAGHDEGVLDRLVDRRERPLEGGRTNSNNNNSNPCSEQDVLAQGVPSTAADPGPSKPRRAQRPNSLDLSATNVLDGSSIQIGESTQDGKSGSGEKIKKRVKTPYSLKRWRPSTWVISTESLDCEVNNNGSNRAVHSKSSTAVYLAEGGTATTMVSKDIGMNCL

B1: BMP10 (ligand)
chain: NAKGNYCKRTPLYIDFKEIGWDSWIIAPPGYEAYECRGVCNYPLAEHLTPTKHAIIQALVHLKNSQKASKACCVPTKLEPISILYLDKGVVTYKFKYEGMAVSECGCR
- Kd [1]: 2.1 nM
- koff [1]: 0.00019 s⁻¹
- kon [1]: 91000 M⁻¹ s⁻¹
- Kd (ACVR2A GBD-Fc (human) [2]): 1 nM
- koff (ACVR2A GBD-Fc (human) [2]): 0.00035 s⁻¹
- kon (ACVR2A GBD-Fc (human) [2]): 360000 M⁻¹ s⁻¹
- Kd [3]: 2.3 nM
- koff [3]: 7.9e-05 s⁻¹
- kon [3]: 34000 M⁻¹ s⁻¹
- Kd [4]: 0.02 nM
- koff [4]: 2.8e-06 s⁻¹
- kon [4]: 140000 M⁻¹ s⁻¹
- Kd [5]: 1 nM
- koff [5]: 1.9e-05 s⁻¹
- kon [5]: 19000 M⁻¹ s⁻¹
- Kd [6]: 0.32 nM
- koff [6]: 7.8e-05 s⁻¹
- kon [6]: 250000 M⁻¹ s⁻¹
- Kd [7]: 1.8 nM
- koff [7]: 0.00017 s⁻¹
- kon [7]: 94000 M⁻¹ s⁻¹
- Kd [8]: 2.5 nM
- koff [8]: 0.00021 s⁻¹
- kon [8]: 83000 M⁻¹ s⁻¹
- Kd [9]: 0.58 nM
- koff [9]: 3.8e-05 s⁻¹
- kon [9]: 65000 M⁻¹ s⁻¹
- Kd [10]: 0.86 nM
- koff [10]: 0.00018 s⁻¹
- kon [10]: 210000 M⁻¹ s⁻¹
- Kd [11]: 1.8 nM
- koff [11]: 0.00015 s⁻¹
- kon [11]: 90000 M⁻¹ s⁻¹
- Kd [12]: 2.4 nM
- koff [12]: 5.5e-05 s⁻¹
- kon [12]: 23000 M⁻¹ s⁻¹

B2: activin B (ligand)
chain: GLECDGRTNLCCRQQFFIDFRLIGWNDWIIAPTGYYGNYCEGSCPAYLAGVPGSASSFHTAVVNQYRMRGLNPGTVNSCCIPTKLSTMSMLYFDDEYNIVKRDVPNMIVEECGCA
- Kd [1]: 2.3 nM
- koff [1]: 0.0018 s⁻¹
- kon [1]: 790000 M⁻¹ s⁻¹
- Kd (ACVR2A GBD-Fc (human) [2]): 0.053 nM
- koff (ACVR2A GBD-Fc (human) [2]): 7.4e-05 s⁻¹
- kon (ACVR2A GBD-Fc (human) [2]): 1.4e+06 M⁻¹ s⁻¹
- koff [13]: 0.00082 s⁻¹
- Kd [3]: 1.4 nM
- koff [3]: 0.00082 s⁻¹
- kon [3]: 580000 M⁻¹ s⁻¹
- Kd [4]: 1.3 nM
- koff [4]: 0.00058 s⁻¹
- kon [4]: 430000 M⁻¹ s⁻¹
- Kd [5]: 0.28 nM
- koff [5]: 0.00019 s⁻¹
- kon [5]: 670000 M⁻¹ s⁻¹
- Kd [6]: 1.1 nM
- koff [6]: 0.00044 s⁻¹
- kon [6]: 400000 M⁻¹ s⁻¹
- Kd [7]: 4.1 nM
- kon [7]: 470000 M⁻¹ s⁻¹
- Kd [8]: 5 nM
- koff [8]: 0.0021 s⁻¹
- kon [8]: 420000 M⁻¹ s⁻¹
- Kd [9]: 2.9 nM
- koff [9]: 0.0013 s⁻¹
- kon [9]: 440000 M⁻¹ s⁻¹
- Kd [10]: 2.6 nM
- koff [10]: 0.0015 s⁻¹
- kon [10]: 610000 M⁻¹ s⁻¹
- Kd [11]: 1.8 nM
- koff [11]: 0.00072 s⁻¹
- kon [11]: 400000 M⁻¹ s⁻¹
- Kd [12]: 0.71 nM
- koff [12]: 0.00062 s⁻¹
- kon [12]: 880000 M⁻¹ s⁻¹
- Kd (ACVR2A GBD-Fc (human) [14]): 1.6 pM
- koff (ACVR2A GBD-Fc (human) [14]): 9.7e-06 s⁻¹
- kon (ACVR2A GBD-Fc (human) [14]): 6.1e+06 M⁻¹ s⁻¹

B3: BMP15 (ligand)
chain: QADGISAEVTASSSKHSGPENNQCSLHPFQISFRQLGWDHWIIAPPFYTPNYCKGTCLRVLRDGLNSPNHAIIQNLINQLVDQSVPRPSCVPYKYVPISVLMIEANGSILYKEYEGMIAESCTCR
- Kd [1]: 6.3 nM
- koff [1]: 0.0021 s⁻¹
- kon [1]: 330000 M⁻¹ s⁻¹

B4: Nodal (ligand)
chain: HHLPDRSQLCRKVKFQVDFNLIGWGSWIIYPKQYNAYRCEGECPNPVGEEFHPTNHAYIQSLLKRYQPHRVPSTCCAPVKTKPLSMLYVDNGRVLLDHHKDMIVEECGCL
- Kd [1]: 3.2 nM
- koff [1]: 0.00014 s⁻¹
- kon [1]: 42000 M⁻¹ s⁻¹

B5: GDF11 (ligand)
chain: NLGLDCDEHSSESRCCRYPLTVDFEAFGWDWIIAPKRYKANYCSGQCEYMFMQKYPHTHLVQQANPRGSAGPCCTPTKMSPINMLYFNDKQQIIYGKIPGMVVDRCGCS
- Kd (ACVR2A GBD-Fc (human) [2]): 0.052 nM
- koff (ACVR2A GBD-Fc (human) [2]): 0.00018 s⁻¹
- kon (ACVR2A GBD-Fc (human) [2]): 3.5e+06 M⁻¹ s⁻¹
